Experimental data from patent US20230257458A1 (SUNSHINE LAKE PHARMA, published 2023).

T1: IL-11 protein (UniProt P20809 22-199, limits assumed)
T1 construct: also called IL-11 antigen
T1 sequence (looked up): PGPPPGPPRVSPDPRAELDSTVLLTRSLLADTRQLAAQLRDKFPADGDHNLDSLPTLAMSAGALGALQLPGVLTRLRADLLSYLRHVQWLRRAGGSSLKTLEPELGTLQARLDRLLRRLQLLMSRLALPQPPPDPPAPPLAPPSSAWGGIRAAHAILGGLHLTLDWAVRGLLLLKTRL


Columns and labels:
IL-11 protein [1] = target: T1, IL-11 protein; experiment: ELISA, monoclonal hybridoma supernatant on IL-11
Excerpt: (§1) Cell lines with high secretion of specific antibody were selected for expanded culture and cryopreservation.

IL-11 protein [2] = target: T1, IL-11 protein; experiment: flow competition: IL-11 + antibody on IL-11R cells; lower = more blocking
Excerpt: as §1

IL-11 protein [3] = target: T1, IL-11 protein; experiment: SPR (Biacore), antibody captured, 400 nM IL-11 as analyte
Description: The measure method included the steps of capturing the humanized antibody at a flow rate of 10 ul/min. […] Finally the chip was regenerated with 10 mM glycine buffer.

Binder | OD450 (IL-11 protein [1]) | FITC Mean (IL-11 protein [2]) | Kd (IL-11 protein [3]) | koff (IL-11 protein [3]) | kon (IL-11 protein [3])
3-9E1-3A2 (antibody, human IgG1, kappa, V domains shown) VH: QIQLVQSGPELKKPGETVNISCRASGDTFTNYAVNWVKQAPGKGLKWMGWIDTYTGDPTYADDLKGRFAFSLETSATTAYLQINNLKNEDTATYFCAGDTWFAYWGQGTLVTVSA VL: not shown | 1.54 | 9070 | – | – | –
3-5B2-2G4 (antibody, human IgG1, kappa, V domains shown) VH: QIQLVQSGPELKKPGETVKISCKASGYTFTNYGMNWVKQAPGKGLKWMGWINTNTGEPTYAEEIKGRFAFSLETSASTAYLQINNLKNEDTATYFCSREGIYGMDSWGQGTSVTVSS VL: SIVMTQTPKFLLVSAGDRVTITCKASQSVSNDVVWYRQKPGQSPKLLIYYASNRYIGVPDRFTGSGYGTDFTFTISTVQAEDLAVYFCQQDYYSPWTFGGGTKLEIKR | 1.65 | 19800 | – | – | –
3-15D5-3A6 (antibody, human IgG1, kappa, V domains shown) VH: QVTLKESGPGILQPSQTLSLTCSFSGFSLSSSGMSVGWIRQPSGKGLEWLAHIWWSDDKSYNPALKSRLTISKDTSNNQVFLKIASVVTADTATYYCAREGSLGYGLDYWGQGTTLTVSS VL: DVLMTQTPLSLPVSLGDQASISCRSSQSIVHTDGNTYLEWYLQKPGQSPKLLIYKVSNRFSGVPDRFSGSGSGTDFTLKISRVEAEDLGVYYCFQGSHVPWTFGGGTKLEIKR | 1.69 | 10900 | – | – | –
VH2 + VL3-scFv (scFv, V domains shown, Humanized 5-20E11-5F2; CHO supernatant; Called scFv, but heavy and light vectors were co-transfected) VH: QVQLVQSGAEVKKPGASVKVSCKASDYTFTNYWLGWVRQAPGQGLEWIGHIYPGGGYTNYNEKFKGRVTMTADTSTSTVYMELSSLRSEDTAVYFCARVRSGNDALDFWGQGTLVTVSS VL: EIVLTQSPATLSLSPGERATLSCRASESVDEYGISFMNWFQQKPGQAPRLLIYSASNQGSGIPARFSGSGSGTDFTLTISSLEPEDFAVYFCQQSKEVPWTFGGGTKLEIK | – | – | 11.9 nM | 0.000541 s⁻¹ | 45600 M⁻¹ s⁻¹
VH2 + VL1-scFv (scFv, V domains shown, Humanized 5-20E11-5F2; CHO supernatant; Called scFv, but heavy and light vectors were co-transfected) VH: QVQLVQSGAEVKKPGASVKVSCKASDYTFTNYWLGWVRQAPGQGLEWIGHIYPGGGYTNYNEKFKGRVTMTADTSTSTVYMELSSLRSEDTAVYFCARVRSGNDALDFWGQGTLVTVSS VL: EIVLTQSPATLSLSPGERATLSCRASESVDEYGISFMNWYQQKPGQAPRLLIYSASNQGSGIPARFSGSGSGTDFTLTISSLEPEDFAVYYCQQSKEVPWTFGGGTKLEIK | – | – | 16.7 nM | 0.00089 s⁻¹ | 53400 M⁻¹ s⁻¹
VH4 + VL1-scFv (scFv, V domains shown, Humanized 5-20E11-5F2; CHO supernatant; Called scFv, but heavy and light vectors were co-transfected) VH: QVQLVQSGAEVKKPGASVKVSCKASDYTFTNYWLGWVRQAPGHGLEWIGHIYPGGGYTNYNEKFKGRATLTADTSTSTVYMELSSLRSEDTAVYFCARVRSGNDALDFWGQGTLVTVSS VL: EIVLTQSPATLSLSPGERATLSCRASESVDEYGISFMNWYQQKPGQAPRLLIYSASNQGSGIPARFSGSGSGTDFTLTISSLEPEDFAVYYCQQSKEVPWTFGGGTKLEIK | – | – | 17.2 nM | 0.00084 s⁻¹ | 48900 M⁻¹ s⁻¹
VH2 + VL2-scFv (scFv, V domains shown, Humanized 5-20E11-5F2; CHO supernatant; Called scFv, but heavy and light vectors were co-transfected) VH: QVQLVQSGAEVKKPGASVKVSCKASDYTFTNYWLGWVRQAPGQGLEWIGHIYPGGGYTNYNEKFKGRVTMTADTSTSTVYMELSSLRSEDTAVYFCARVRSGNDALDFWGQGTLVTVSS VL: EIVLTQSPATLSLSPGERATLSCRASESVDEYGISFMNWYQQKPGQAPRLLIYSASNQGSGIPARFSGSGSGTDFTLTISSLEPEDFAVYFCQQSKEVPWTFGGGTKLEIK | – | – | 17.8 nM | 0.000812 s⁻¹ | 45700 M⁻¹ s⁻¹
VH3 + VL1-scFv (scFv, V domains shown, Humanized 5-20E11-5F2; CHO supernatant; Called scFv, but heavy and light vectors were co-transfected) VH: QVQLVQSGAEVKKPGASVKVSCKASDYTFTNYWLGWVRQAPGQGLEWIGHIYPGGGYTNYNEKFKGRATLTADTSTSTVYMELSSLRSEDTAVYFCARVRSGNDALDFWGQGTLVTVSS VL: EIVLTQSPATLSLSPGERATLSCRASESVDEYGISFMNWYQQKPGQAPRLLIYSASNQGSGIPARFSGSGSGTDFTLTISSLEPEDFAVYYCQQSKEVPWTFGGGTKLEIK | – | – | 22.5 nM | 0.001 s⁻¹ | 44500 M⁻¹ s⁻¹
VH1 + VL1-scFv (scFv, V domains shown, Humanized 5-20E11-5F2; CHO supernatant; Called scFv, but heavy and light vectors were co-transfected) VH: QVQLVQSGAEVKKPGASVKVSCKASDYTFTNYWLGWVRQAPGQGLEWMGHIYPGGGYTNYNEKFKGRVTMTRDTSTSTVYMELSSLRSEDTAVYYCARVRSGNDALDFWGQGTLVTVSS VL: EIVLTQSPATLSLSPGERATLSCRASESVDEYGISFMNWYQQKPGQAPRLLIYSASNQGSGIPARFSGSGSGTDFTLTISSLEPEDFAVYYCQQSKEVPWTFGGGTKLEIK | – | – | 21.6 nM | 0.000758 s⁻¹ | 35100 M⁻¹ s⁻¹

Other lines, results leading:

OD450 (IL-11 protein [1]) | FITC Mean (IL-11 protein [2]) | Kd (IL-11 protein [3]) | koff (IL-11 protein [3]) | kon (IL-11 protein [3]) | Binder
– | – | 9.76 nM | 0.000464 s⁻¹ | 47600 M⁻¹ s⁻¹ | VH3 + VL3-scFv (scFv, V domains shown, Humanized 5-20E11-5F2; CHO supernatant; Called scFv, but heavy and light vectors were co-transfected) VH: QVQLVQSGAEVKKPGASVKVSCKASDYTFTNYWLGWVRQAPGQGLEWIGHIYPGGGYTNYNEKFKGRATLTADTSTSTVYMELSSLRSEDTAVYFCARVRSGNDALDFWGQGTLVTVSS VL: EIVLTQSPATLSLSPGERATLSCRASESVDEYGISFMNWFQQKPGQAPRLLIYSASNQGSGIPARFSGSGSGTDFTLTISSLEPEDFAVYFCQQSKEVPWTFGGGTKLEIK
– | – | 13.3 nM | 0.000556 s⁻¹ | 41800 M⁻¹ s⁻¹ | VH3 + VL4-scFv (scFv, V domains shown, Humanized 5-20E11-5F2; CHO supernatant; Called scFv, but heavy and light vectors were co-transfected) VH: QVQLVQSGAEVKKPGASVKVSCKASDYTFTNYWLGWVRQAPGQGLEWIGHIYPGGGYTNYNEKFKGRATLTADTSTSTVYMELSSLRSEDTAVYFCARVRSGNDALDFWGQGTLVTVSS VL: EIVLTQSPATLSLSPGERATLSCRASESVDEYGISFMNWFQQKPGQAPRLLIYSASNQGSGIPARFSGSGSGTDFTLTISSLEPEDFAMYFCQQSKEVPWTFGGGTKLEIK
– | – | 11.1 nM | 0.000614 s⁻¹ | 55200 M⁻¹ s⁻¹ | VH4 + VL2-scFv (scFv, V domains shown, Humanized 5-20E11-5F2; CHO supernatant; Called scFv, but heavy and light vectors were co-transfected) VH: QVQLVQSGAEVKKPGASVKVSCKASDYTFTNYWLGWVRQAPGHGLEWIGHIYPGGGYTNYNEKFKGRATLTADTSTSTVYMELSSLRSEDTAVYFCARVRSGNDALDFWGQGTLVTVSS VL: EIVLTQSPATLSLSPGERATLSCRASESVDEYGISFMNWYQQKPGQAPRLLIYSASNQGSGIPARFSGSGSGTDFTLTISSLEPEDFAVYFCQQSKEVPWTFGGGTKLEIK
– | – | 12.3 nM | 0.000436 s⁻¹ | 35500 M⁻¹ s⁻¹ | VH1 + VL3-scFv (scFv, V domains shown, Humanized 5-20E11-5F2; CHO supernatant; Called scFv, but heavy and light vectors were co-transfected) VH: QVQLVQSGAEVKKPGASVKVSCKASDYTFTNYWLGWVRQAPGQGLEWMGHIYPGGGYTNYNEKFKGRVTMTRDTSTSTVYMELSSLRSEDTAVYYCARVRSGNDALDFWGQGTLVTVSS VL: EIVLTQSPATLSLSPGERATLSCRASESVDEYGISFMNWFQQKPGQAPRLLIYSASNQGSGIPARFSGSGSGTDFTLTISSLEPEDFAVYFCQQSKEVPWTFGGGTKLEIK
– | – | 11.2 nM | 0.000516 s⁻¹ | 46100 M⁻¹ s⁻¹ | VH4 + VL3-scFv (scFv, V domains shown, Humanized 5-20E11-5F2; CHO supernatant; Called scFv, but heavy and light vectors were co-transfected) VH: QVQLVQSGAEVKKPGASVKVSCKASDYTFTNYWLGWVRQAPGHGLEWIGHIYPGGGYTNYNEKFKGRATLTADTSTSTVYMELSSLRSEDTAVYFCARVRSGNDALDFWGQGTLVTVSS VL: EIVLTQSPATLSLSPGERATLSCRASESVDEYGISFMNWFQQKPGQAPRLLIYSASNQGSGIPARFSGSGSGTDFTLTISSLEPEDFAVYFCQQSKEVPWTFGGGTKLEIK
– | – | 14.6 nM | 0.00068 s⁻¹ | 46500 M⁻¹ s⁻¹ | VH3 + VL2-scFv (scFv, V domains shown, Humanized 5-20E11-5F2; CHO supernatant; Called scFv, but heavy and light vectors were co-transfected) VH: QVQLVQSGAEVKKPGASVKVSCKASDYTFTNYWLGWVRQAPGQGLEWIGHIYPGGGYTNYNEKFKGRATLTADTSTSTVYMELSSLRSEDTAVYFCARVRSGNDALDFWGQGTLVTVSS VL: EIVLTQSPATLSLSPGERATLSCRASESVDEYGISFMNWYQQKPGQAPRLLIYSASNQGSGIPARFSGSGSGTDFTLTISSLEPEDFAVYFCQQSKEVPWTFGGGTKLEIK
– | – | 11.2 nM | 0.000461 s⁻¹ | 41300 M⁻¹ s⁻¹ | VH1 + VL2-scFv (scFv, V domains shown, Humanized 5-20E11-5F2; CHO supernatant; Called scFv, but heavy and light vectors were co-transfected) VH: QVQLVQSGAEVKKPGASVKVSCKASDYTFTNYWLGWVRQAPGQGLEWMGHIYPGGGYTNYNEKFKGRVTMTRDTSTSTVYMELSSLRSEDTAVYYCARVRSGNDALDFWGQGTLVTVSS VL: EIVLTQSPATLSLSPGERATLSCRASESVDEYGISFMNWYQQKPGQAPRLLIYSASNQGSGIPARFSGSGSGTDFTLTISSLEPEDFAVYFCQQSKEVPWTFGGGTKLEIK
– | – | 10 nM | 0.000481 s⁻¹ | 47900 M⁻¹ s⁻¹ | VH4 + VL4-scFv (scFv, V domains shown, Humanized 5-20E11-5F2; CHO supernatant; Called scFv, but heavy and light vectors were co-transfected) VH: QVQLVQSGAEVKKPGASVKVSCKASDYTFTNYWLGWVRQAPGHGLEWIGHIYPGGGYTNYNEKFKGRATLTADTSTSTVYMELSSLRSEDTAVYFCARVRSGNDALDFWGQGTLVTVSS VL: EIVLTQSPATLSLSPGERATLSCRASESVDEYGISFMNWFQQKPGQAPRLLIYSASNQGSGIPARFSGSGSGTDFTLTISSLEPEDFAMYFCQQSKEVPWTFGGGTKLEIK
– | – | 11.7 nM | 0.000387 s⁻¹ | 33100 M⁻¹ s⁻¹ | VH1 + VL4-scFv (scFv, V domains shown, Humanized 5-20E11-5F2; CHO supernatant; Called scFv, but heavy and light vectors were co-transfected) VH: QVQLVQSGAEVKKPGASVKVSCKASDYTFTNYWLGWVRQAPGQGLEWMGHIYPGGGYTNYNEKFKGRVTMTRDTSTSTVYMELSSLRSEDTAVYYCARVRSGNDALDFWGQGTLVTVSS VL: EIVLTQSPATLSLSPGERATLSCRASESVDEYGISFMNWFQQKPGQAPRLLIYSASNQGSGIPARFSGSGSGTDFTLTISSLEPEDFAMYFCQQSKEVPWTFGGGTKLEIK
– | – | 10.8 nM | 0.000528 s⁻¹ | 48800 M⁻¹ s⁻¹ | VH2 + VL4-scFv (scFv, V domains shown, Humanized 5-20E11-5F2; CHO supernatant; Called scFv, but heavy and light vectors were co-transfected) VH: QVQLVQSGAEVKKPGASVKVSCKASDYTFTNYWLGWVRQAPGQGLEWIGHIYPGGGYTNYNEKFKGRVTMTADTSTSTVYMELSSLRSEDTAVYFCARVRSGNDALDFWGQGTLVTVSS VL: EIVLTQSPATLSLSPGERATLSCRASESVDEYGISFMNWFQQKPGQAPRLLIYSASNQGSGIPARFSGSGSGTDFTLTISSLEPEDFAMYFCQQSKEVPWTFGGGTKLEIK
